Residue numbers refer to the chain shown, from its start.
What was measured:
Assay in all cases: cell_activity; E. coli
pN-TALER IV-5-EE2 = target: T1, pN-TALER IV-5-EE2 (synthetic); conditions: tags: 6-His
T1 chain: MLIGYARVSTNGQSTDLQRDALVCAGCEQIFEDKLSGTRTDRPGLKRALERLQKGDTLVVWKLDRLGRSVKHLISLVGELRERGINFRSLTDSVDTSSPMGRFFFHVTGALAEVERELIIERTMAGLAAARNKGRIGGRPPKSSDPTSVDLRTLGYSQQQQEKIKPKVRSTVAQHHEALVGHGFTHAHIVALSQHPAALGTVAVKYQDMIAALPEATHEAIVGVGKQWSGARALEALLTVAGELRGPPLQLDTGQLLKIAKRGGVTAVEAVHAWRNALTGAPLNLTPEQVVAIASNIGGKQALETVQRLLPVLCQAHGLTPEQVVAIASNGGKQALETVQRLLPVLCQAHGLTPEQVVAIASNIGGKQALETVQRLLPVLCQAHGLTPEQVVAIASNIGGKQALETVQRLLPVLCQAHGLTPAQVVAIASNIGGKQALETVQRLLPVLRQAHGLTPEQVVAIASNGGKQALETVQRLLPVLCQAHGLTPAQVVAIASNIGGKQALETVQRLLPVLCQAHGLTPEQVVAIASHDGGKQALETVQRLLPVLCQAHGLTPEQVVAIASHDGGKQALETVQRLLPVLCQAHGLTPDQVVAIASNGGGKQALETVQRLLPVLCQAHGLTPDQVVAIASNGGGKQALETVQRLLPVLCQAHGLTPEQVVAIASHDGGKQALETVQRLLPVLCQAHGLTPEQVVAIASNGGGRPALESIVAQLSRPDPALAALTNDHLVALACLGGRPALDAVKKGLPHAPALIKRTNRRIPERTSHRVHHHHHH

sN-TALER IV-12 = target: T2, sN-TALER IV-12 (synthetic)
T2 chain: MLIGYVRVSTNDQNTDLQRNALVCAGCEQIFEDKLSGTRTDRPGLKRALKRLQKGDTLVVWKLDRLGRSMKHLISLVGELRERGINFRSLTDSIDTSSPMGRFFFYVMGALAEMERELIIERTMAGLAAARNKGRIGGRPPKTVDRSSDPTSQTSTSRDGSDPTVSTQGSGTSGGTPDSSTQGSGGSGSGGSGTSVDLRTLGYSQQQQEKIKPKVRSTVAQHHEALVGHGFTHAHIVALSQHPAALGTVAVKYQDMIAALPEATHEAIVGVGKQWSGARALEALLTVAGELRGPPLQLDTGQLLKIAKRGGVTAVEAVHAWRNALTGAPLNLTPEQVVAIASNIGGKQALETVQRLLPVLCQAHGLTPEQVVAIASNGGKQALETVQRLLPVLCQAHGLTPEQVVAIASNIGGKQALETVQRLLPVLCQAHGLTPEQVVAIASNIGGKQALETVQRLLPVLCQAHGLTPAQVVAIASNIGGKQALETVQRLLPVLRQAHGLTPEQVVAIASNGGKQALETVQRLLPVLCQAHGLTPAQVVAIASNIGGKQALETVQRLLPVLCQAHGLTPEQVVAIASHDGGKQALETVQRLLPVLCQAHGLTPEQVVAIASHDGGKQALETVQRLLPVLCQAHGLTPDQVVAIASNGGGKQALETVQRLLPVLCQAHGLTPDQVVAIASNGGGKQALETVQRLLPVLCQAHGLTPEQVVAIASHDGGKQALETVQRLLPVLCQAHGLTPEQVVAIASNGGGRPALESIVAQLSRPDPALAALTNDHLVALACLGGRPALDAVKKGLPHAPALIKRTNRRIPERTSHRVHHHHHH
Protocol: (§1) To test for recombination, E. coli DH5alpha cells were co-transformed with different combinations of TALER expression construct and TALER reporter construct pairs (Tables 6 and 7). The N-TALER expression and reporter constructs were in an approximate 1:1 mass ratio during the transformation. The co-transformed bacteria were plated on media with chloramphenicol, kanamycin, and X-gal then incubated at 37° C. for 18 to 36 hours. Control samples consisted of transformations using the reporter construct alone. Control transformants were similarly plated. The bacterial transformation protocol was either heat shock or electroporation per standard molecular biology techniques.
(§2) The N-TALER expression constructs representing the N-TALER chimeras with varying linker lengths were co-transformed with N-TALER reporter constructs with TALER central sequence lengths of 18, 20, 24, 30, 40, and 50 bp (Table 13). […] Recombination did occur, but was less efficient with the pN-TALER IV-14 (linker length of 71 amino acids) with each of the N-TALER reporters tested.

pN-TALER IV-12 = target: T3, pN-TALER IV-12 (synthetic)
T3 chain: T2 chain with V6A, D12G, N14S, N20D, K50E, M70V, I94V, Y106H, M108T, M114V
Protocol: as §1, §2

Measured: activity

B1: Gin20TALE+0 (dsDNA)
DNA 1: AGAAGGTATTTATATCCAAAACCATGGTTTACAGTATAAATACCTTCT
DNA 2: AGAAGGTATTTATACTGTAAACCATGGTTTTGGATATAAATACCTTCT
1 score: all assays above

— patent US20140193915, “COMPOSITIONS AND METHODS FOR CUSTOM SITE-SPECIFIC DNA RECOMBINASES” (Monsanto Technology, LLC, published 2014)
